Data: patent publication US20180360949A1

Assays:
CD4 [1] = target: CD4 (UniProt P01730); test: Biacore CD4 binding, lot comparison (clinical trial material)
CD4 [2] = target: CD4 (UniProt P01730); test: Biacore CD4 binding, lot comparison (reference material)

Substance	CD4 binding (Biacore) % (CD4 [1])	CD4 binding (Biacore) % (CD4 [2])
1086.C gp120	87%	100%
TV1.C gp120	98%	91%
